Tests used:
soybean plants [1] = experiment: Chlorsulfuron spray test of transgenic T1 soybean plants; type: in vivo; settings: chlorsulfuron 3 g ai/ha foliar; homozygous T1 plants; 8 days after treatment; 0=no effect, 100=dead plant
Procedure: T1 plants, each having an ALS variant transgene, were grown to the V1 to V2 growth stage and then sprayed with commercial chlorsulfuron formulation at a rate of 3 g ai/ha. All chlorsulfuron treatments were applied foliarly with 0.25% nonionic surfactant in a spray volume of 374 L/ha. Individual plants were compared to untreated plants of similar genetic background, evaluated for herbicide response at eight days after treatment and assigned a visual response score from 0 to 100% injury (0=no effect to 100=dead plant at day 8).
Results in Table 8 list the lowest injury among plants of a single event for constructs containing the listed expression cassette. The amino acid substituted ALS variants provided more protection than the overexpression of the native ALS gene. Seed was produced from a number of T1 plants and advanced to more extensive herbicide testing in the T2 generation.

soybean plants [2] = experiment: Spray test of homozygous transgenic soybean plants with five ALS-inhibitor herbicides; type: in vivo; settings: homozygous T1 or T2 plants
Procedure: T1 or T2 soybean plants were evaluated with qPCR to confirm they were homozygous for the transgene. Plants were sprayed at the V1 to V2 growth stage with the commercial formulations of chlorimuron (32 g ai/ha), tribenuron-methyl (16 g ai/ha), thifensulfuron-methyl (16 g ai/ha), rimsulfuron (8 g ai/ha), and imazapyr (4 g ai/ha). Each herbicide was applied foliarly with nonionic surfactant in a spray volume of 374 L/ha. The herbicide response for individual plants was determined by comparing to untreated plants of similar genetic background. Visual injury was scored on a scale of 0 to 100% injury (0=no effect to 100=dead plant). The lowest response for four treated plants of a single event from each construct with the listed expression cassette is reported.

ALS [3] = settings: cited from earlier work
ALS [4] = settings: pyruvate reaction; cited from earlier work

B1: UBQ10: GM-ALS_A103T_P178S_D357E: UBQ10 promoter driving ALS variant SEQ ID NO 8 in transgenic soybean (protein)
chain: MAATASRTTRFSSSSSHPTFPKRITRSTLPLSHQTLTKPNHALKIKCSISKPPTAAPFTKEAPTTEPFVSRFASGEPRKGADILVEALERQGVTTVFAYPGGTSMEIHQALTRSAAIRNVLPRHEQGGVFAAEGYARSSGLPGVCIATSGPGATNLVSGLADALMDSVPVVAITGQVSRRMIGTDAFQETPIVEVSRSITKHNYLILDVDDIPRVVAEAFFVATSGRPGPVLIDIPKDVQQQLAVPNWDEPVNLPGYLARLPRPPAEAQLEHIVRLIMEAQKPVLYVGGGSLNSSAELRRFVELTGIPVASTLMGLGTFPIGDEYSLQMLGMHGTVYANYAVDNSDLLLAFGVRFDERVTGKLEAFASRAKIVHIDIDSAEIGKNKQAHVSVCADLKLALKGINMILEEKGVEGKFDLGGWREEINVQKHKFPLGYKTFQDAISPQHAIEVLDELTNGDAIVSTGVGQHQMWAAQFYKYKRPRQWLTSGGLGAMGFGLPAAIGAAVANPGAVVVDIDGDGSFIMNVQELATIRVENLPVKILLLNNQHLGMVVQWEDRFYKSNRAHTYLGDPSSESEIFPNMLKFADACGIPAARVTKKEELRAAIQRMLDTPGPYLLDVIVPHQEHVLPMIPSNGSFKDVITEGDGRTRY
Soybean plants [1]
  Lowest % injury: 75%
Soybean plants [2]; chlorimuron 32 g ai/ha foliar
  Lowest % injury Chlorimuron: 5%
Soybean plants [2]; imazapyr 4 g ai/ha foliar
  Lowest % injury Imazapyr: 50%
Soybean plants [2]; rimsulfuron 8 g ai/ha foliar
  Lowest % injury Rimsulfuron: 80%
Soybean plants [2]; thifensulfuron-methyl 16 g ai/ha foliar
  Lowest % injury Thifensulfuron-methyl: 0%
Soybean plants [2]; tribenuron-methyl 16 g ai/ha foliar
  Lowest % injury Tribenuron-methyl: 55%

B2: SAMS: GM-ALS W555L: SAMS promoter driving ALS variant SEQ ID NO 26 in transgenic soybean (protein)
chain: MAATASRTTRFSSSSSHPTFPKRITRSTLPLSHQTLTKPNHALKIKCSISKPPTAAPFTKEAPTTEPFVSRFASGEPRKGADILVEALERQGVTTVFAYPGGASMEIHQALTRSAAIRNVLPRHEQGGVFAAEGYARSSGLPGVCIATSGPGATNLVSGLADALMDSVPVVAITGQVPRRMIGTDAFQETPIVEVSRSITKHNYLILDVDDIPRVVAEAFFVATSGRPGPVLIDIPKDVQQQLAVPNWDEPVNLPGYLARLPRPPAEAQLEHIVRLIMEAQKPVLYVGGGSLNSSAELRRFVELTGIPVASTLMGLGTFPIGDEYSLQMLGMHGTVYANYAVDNSDLLLAFGVRFDDRVTGKLEAFASRAKIVHIDIDSAEIGKNKQAHVSVCADLKLALKGINMILEEKGVEGKFDLGGWREEINVQKHKFPLGYKTFQDAISPQHAIEVLDELTNGDAIVSTGVGQHQMWAAQFYKYKRPRQWLTSGGLGAMGFGLPAAIGAAVANPGAVVVDIDGDGSFIMNVQELATIRVENLPVKILLLNNQHLGMVVQLEDRFYKSNRAHTYLGDPSSESEIFPNMLKFADACGIPAARVTKKEELRAAIQRMLDTPGPYLLDVIVPHQEHVLPMIPSNGSFKDVITEGDGRTRY
Soybean plants [1]
  Lowest % injury: 80%

B3: SAMS: GM-ALS_A103T_P178S: SAMS promoter driving ALS variant SEQ ID NO 7 in transgenic soybean (protein)
chain: MAATASRTTRFSSSSSHPTFPKRITRSTLPLSHQTLTKPNHALKIKCSISKPPTAAPFTKEAPTTEPFVSRFASGEPRKGADILVEALERQGVTTVFAYPGGTSMEIHQALTRSAAIRNVLPRHEQGGVFAAEGYARSSGLPGVCIATSGPGATNLVSGLADALMDSVPVVAITGQVSRRMIGTDAFQETPIVEVSRSITKHNYLILDVDDIPRVVAEAFFVATSGRPGPVLIDIPKDVQQQLAVPNWDEPVNLPGYLARLPRPPAEAQLEHIVRLIMEAQKPVLYVGGGSLNSSAELRRFVELTGIPVASTLMGLGTFPIGDEYSLQMLGMHGTVYANYAVDNSDLLLAFGVRFDDRVTGKLEAFASRAKIVHIDIDSAEIGKNKQAHVSVCADLKLALKGINMILEEKGVEGKFDLGGWREEINVQKHKFPLGYKTFQDAISPQHAIEVLDELTNGDAIVSTGVGQHQMWAAQFYKYKRPRQWLTSGGLGAMGFGLPAAIGAAVANPGAVVVDIDGDGSFIMNVQELATIRVENLPVKILLLNNQHLGMVVQWEDRFYKSNRAHTYLGDPSSESEIFPNMLKFADACGIPAARVTKKEELRAAIQRMLDTPGPYLLDVIVPHQEHVLPMIPSNGSFKDVITEGDGRTRY
Soybean plants [1]
  Lowest % injury: 80%

B4: SAMS: GM-ALS_A103T_P178S_D357E: SAMS promoter driving ALS variant SEQ ID NO 8 in transgenic soybean (protein)
chain: MAATASRTTRFSSSSSHPTFPKRITRSTLPLSHQTLTKPNHALKIKCSISKPPTAAPFTKEAPTTEPFVSRFASGEPRKGADILVEALERQGVTTVFAYPGGTSMEIHQALTRSAAIRNVLPRHEQGGVFAAEGYARSSGLPGVCIATSGPGATNLVSGLADALMDSVPVVAITGQVSRRMIGTDAFQETPIVEVSRSITKHNYLILDVDDIPRVVAEAFFVATSGRPGPVLIDIPKDVQQQLAVPNWDEPVNLPGYLARLPRPPAEAQLEHIVRLIMEAQKPVLYVGGGSLNSSAELRRFVELTGIPVASTLMGLGTFPIGDEYSLQMLGMHGTVYANYAVDNSDLLLAFGVRFDERVTGKLEAFASRAKIVHIDIDSAEIGKNKQAHVSVCADLKLALKGINMILEEKGVEGKFDLGGWREEINVQKHKFPLGYKTFQDAISPQHAIEVLDELTNGDAIVSTGVGQHQMWAAQFYKYKRPRQWLTSGGLGAMGFGLPAAIGAAVANPGAVVVDIDGDGSFIMNVQELATIRVENLPVKILLLNNQHLGMVVQWEDRFYKSNRAHTYLGDPSSESEIFPNMLKFADACGIPAARVTKKEELRAAIQRMLDTPGPYLLDVIVPHQEHVLPMIPSNGSFKDVITEGDGRTRY
Soybean plants [1]
  Lowest % injury: 80%

B5: SAMS: GM-ALS_P178S_D357E: SAMS promoter driving ALS variant SEQ ID NO 17 in transgenic soybean (protein)
chain: MAATASRTTRFSSSSSHPTFPKRITRSTLPLSHQTLTKPNHALKIKCSISKPPTAAPFTKEAPTTEPFVSRFASGEPRKGADILVEALERQGVTTVFAYPGGASMEIHQALTRSAAIRNVLPRHEQGGVFAAEGYARSSGLPGVCIATSGPGATNLVSGLADALMDSVPVVAITGQVSRRMIGTDAFQETPIVEVSRSITKHNYLILDVDDIPRVVAEAFFVATSGRPGPVLIDIPKDVQQQLAVPNWDEPVNLPGYLARLPRPPAEAQLEHIVRLIMEAQKPVLYVGGGSLNSSAELRRFVELTGIPVASTLMGLGTFPIGDEYSLQMLGMHGTVYANYAVDNSDLLLAFGVRFDERVTGKLEAFASRAKIVHIDIDSAEIGKNKQAHVSVCADLKLALKGINMILEEKGVEGKFDLGGWREEINVQKHKFPLGYKTFQDAISPQHAIEVLDELTNGDAIVSTGVGQHQMWAAQFYKYKRPRQWLTSGGLGAMGFGLPAAIGAAVANPGAVVVDIDGDGSFIMNVQELATIRVENLPVKILLLNNQHLGMVVQWEDRFYKSNRAHTYLGDPSSESEIFPNMLKFADACGIPAARVTKKEELRAAIQRMLDTPGPYLLDVIVPHQEHVLPMIPSNGSFKDVITEGDGRTRY
Soybean plants [1]
  Lowest % injury: 45%

B6: G116S: Site-directed mutation in Saccharomyces cerevisiae ALS; position G121 A. thal., 102 G. max (protein, UniProt P07342 91-687, looked up, variant G116S)
Acetolactate synthase …: GLTGGQIFNEMMSRQNVDTVFGYPGSAILPVYDAIHNSDKFNFVLPKHEQGAGHMAEGYARASGKPGVVLVTSGPGATNVVTPMADAFADGIPMVVFTGQVPTSAIGTDAFQEADVVGISRSCTKWNVMVKSVEELPLRINEAFEIATSGRPGPVLVDLPKDVTAAILRNPIPTKTTLPSNALNQLTSRAQDEFVMQSINKAADLINLAKKPVLYVGAGILNHADGPRLLKELSDRAQIPVTTTLQGLGSFDQEDPKSLDMLGMHGCATANLAVQNADLIIAVGARFDDRVTGNISKFAPEARRAAAEGRGGIIHFEVSPKNINKVVQTQIAVEGDATTNLGKMMSKIFPVKERSEWFAQINKWKKEYPYAYMEETPGSKIKPQTVIKKLSKVANDTGRHVIVTTGVGQHQMWAAQHWTWRNPHTFITSGGLGTMGYGLPAAIGAQVAKPESLVIDIDGDASFNMTLTELSSAVQAGTPVKILILNNEEQGMVTQWQSLFYEHRYSHTHQLNPDFIKLAEAMGLKGLRVKKQEELDAKLKEFVSTKGPVLLEVEVDKKVPVLPMVAGGSGLDEFINFDPEVERQQTELRHKRTGGKH
ALS [3]; imidazolinone(s)
  Resistance pattern, I50 fold increase: IM: IMs 15-300 fold
ALS [3]; sulfonylurea(s)
  Resistance pattern, I50 fold increase: SU: SUs, 1000-10000 fold
ALS [4]
  Kinetic parameters: Km: Km, 20 % wt
  Kinetic parameters: kcat: kcat, 75 % wt
